Experimental data from patent publication US6114125.

Target: β-casein
Settings: scale: % of the protease activity of natural Hin47 protein

For Hin47 Ser-197->alanine analog (enzyme), which Protease activity (digestion of β-casein, SDS-PAGE) is on record?
Its Protease activity (digestion of β-casein, SDS-PAGE) is under 10.
